According to patent US20090270325A1:

Legend:
[1] = biological target: human GHR on human 293 cells stably expressing the human GHR (human) (UniProt P10912)
[2] = biological target: human GHR on human 293 cells stably expressing the human GHR (human) (UniProt P10912); remark: listed apart in the source

Substance: hGH-GHR Chimera (75 kDa chimera) (from UniProt P01241)
- concentration for the maximal response, Stat 5 luciferase-reporter assay [1]: 50 to 250 nM
- GH-specific luciferase reporter assay (bioactivity) [2]: 10%
